# Source: US20200062863A1 (CSL BEHRING, published 2020)
# T1: human Factor XIIa-beta (human, UniProt P00748 354-615, limits assumed)
# T1 construct: Bought from Enzyme Research Laboratories; also called FXIIa beta; FXIIa-beta
# T1 sequence: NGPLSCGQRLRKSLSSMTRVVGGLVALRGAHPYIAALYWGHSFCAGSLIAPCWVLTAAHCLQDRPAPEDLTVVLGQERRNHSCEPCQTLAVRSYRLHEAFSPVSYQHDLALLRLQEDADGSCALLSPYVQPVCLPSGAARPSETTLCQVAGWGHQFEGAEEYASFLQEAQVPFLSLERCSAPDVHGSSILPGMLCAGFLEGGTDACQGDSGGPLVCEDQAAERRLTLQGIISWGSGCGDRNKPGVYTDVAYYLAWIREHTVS
# T2: N376D
# T2 construct: also called Mu-FXII N376D mutant with C-terminal 8xHis-tag; mutant a)
# T2 single chain: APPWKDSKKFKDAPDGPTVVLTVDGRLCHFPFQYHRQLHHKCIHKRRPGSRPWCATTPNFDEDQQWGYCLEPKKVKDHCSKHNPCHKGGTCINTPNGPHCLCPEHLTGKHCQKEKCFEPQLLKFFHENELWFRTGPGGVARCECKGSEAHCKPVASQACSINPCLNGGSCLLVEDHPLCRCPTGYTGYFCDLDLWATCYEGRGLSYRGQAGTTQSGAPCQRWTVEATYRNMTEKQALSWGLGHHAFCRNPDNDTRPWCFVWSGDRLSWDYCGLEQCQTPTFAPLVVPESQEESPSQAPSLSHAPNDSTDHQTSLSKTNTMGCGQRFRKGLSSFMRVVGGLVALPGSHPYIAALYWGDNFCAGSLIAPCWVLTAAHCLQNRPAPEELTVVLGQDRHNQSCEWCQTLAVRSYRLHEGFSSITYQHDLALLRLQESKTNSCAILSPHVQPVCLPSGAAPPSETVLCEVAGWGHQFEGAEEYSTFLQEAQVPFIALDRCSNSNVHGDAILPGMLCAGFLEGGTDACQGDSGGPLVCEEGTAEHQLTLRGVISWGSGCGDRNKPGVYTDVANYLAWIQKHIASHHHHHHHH
# T3: Q450R
# T3 construct: also called Mu-FXII Q450R mutant with C-terminal 8xHis-tag; mutant g)
# T3 single chain: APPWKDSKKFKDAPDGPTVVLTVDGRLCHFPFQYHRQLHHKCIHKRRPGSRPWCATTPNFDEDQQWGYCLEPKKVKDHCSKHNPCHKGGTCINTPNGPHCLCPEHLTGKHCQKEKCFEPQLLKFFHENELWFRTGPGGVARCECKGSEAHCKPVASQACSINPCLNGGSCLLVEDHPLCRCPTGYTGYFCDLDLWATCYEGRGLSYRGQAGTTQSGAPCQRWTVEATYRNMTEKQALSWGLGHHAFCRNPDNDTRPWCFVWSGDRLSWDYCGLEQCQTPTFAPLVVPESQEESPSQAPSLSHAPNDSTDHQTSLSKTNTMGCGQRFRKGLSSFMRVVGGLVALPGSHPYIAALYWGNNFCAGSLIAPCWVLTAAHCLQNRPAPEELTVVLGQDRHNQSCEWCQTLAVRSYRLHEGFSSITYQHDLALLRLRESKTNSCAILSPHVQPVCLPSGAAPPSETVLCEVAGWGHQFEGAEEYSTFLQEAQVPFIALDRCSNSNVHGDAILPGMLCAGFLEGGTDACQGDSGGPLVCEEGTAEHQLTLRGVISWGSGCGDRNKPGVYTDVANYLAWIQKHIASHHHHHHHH
# T4: S452G
# T4 construct: also called Mu-FXII S452G mutant with C-terminal 8xHis-tag; mutant i)
# T4 single chain: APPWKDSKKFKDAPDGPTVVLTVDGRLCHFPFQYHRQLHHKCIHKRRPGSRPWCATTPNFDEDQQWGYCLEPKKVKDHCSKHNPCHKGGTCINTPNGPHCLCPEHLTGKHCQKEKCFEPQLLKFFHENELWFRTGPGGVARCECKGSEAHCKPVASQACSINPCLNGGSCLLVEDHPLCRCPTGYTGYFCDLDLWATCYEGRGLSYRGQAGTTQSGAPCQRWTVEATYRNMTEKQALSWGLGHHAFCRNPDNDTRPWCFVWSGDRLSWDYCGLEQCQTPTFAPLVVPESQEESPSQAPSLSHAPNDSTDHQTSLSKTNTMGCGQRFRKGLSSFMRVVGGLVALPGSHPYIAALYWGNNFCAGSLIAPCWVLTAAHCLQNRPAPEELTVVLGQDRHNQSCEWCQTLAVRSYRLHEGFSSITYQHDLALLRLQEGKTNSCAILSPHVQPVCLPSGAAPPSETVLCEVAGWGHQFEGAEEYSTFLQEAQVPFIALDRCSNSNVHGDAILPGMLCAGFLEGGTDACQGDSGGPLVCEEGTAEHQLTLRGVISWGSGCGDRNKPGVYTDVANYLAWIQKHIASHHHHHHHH
# Legend:
# human Factor XIIa-beta = target: T1, human Factor XIIa-beta; assay: SPR (Biacore), KD against parental 3F7
# N376D = target: T2, N376D; assay: Western blot of culture supernatant (non-reducing SDS-PAGE) probed with 3F7 mAb, anti-human IgG-FITC
# Procedure: (§1) Proteins were then transferred electrophoretically onto nitrocellulose filters and blocked for 1 hour in 5% Milk powder in Tris-buffered saline with 0.05% Tween-20 (TTBS). Filters were then incubated for 1 hour with either 3F7 mAb or an anti-His mAb 3H3 (both at […] in TTBS with 5% Milk powder), washed thoroughly with TTBS, then incubated for a further hour with anti-human IgG-FITC or anti-mouse IgG-FITC, respectively (Millipore, USA; both at 0.25 mg/ml in TTBS with 5% Milk powder). Following further washing of membranes in TTBS, Ab-FITC bound proteins were visualized using a Typhoon variable mode analyzer (GE Healthcare, USA).
# Q450R = target: T3, Q450R; assay: as above
# Procedure: as §1
# S452G = target: T4, S452G; assay: as above
# Procedure: as §1
binder,measurement,setting,value
"monoclonal antibody 3F7 (fully human IgG4/lambda) (antibody, V domains shown, also called 3F7 mAb; MAb 3F7) VH: EVQLLESGGGLVQPGGSLRLSCAASGFTFSKYIMQWVRQAPGKGLEWVSGIRPSGGTTVYADSVKGRFTISRDNSKNTLYLQMNSLRAEDTAVYYCARALPRSGYLISPHYYYYALDVWGQGTTVTVSS VL: QSELTQPPSASGTPGQRVTISCSGSSSNIGRNYVYWYQQVPGTAPKLLIYSNNQRPSGVPDRFSGSKSGTSASLVISGLRSEDEADYYCAAWDASLRGVFGGGTKLTVLG",Fold affinity improvement,human Factor XIIa-beta,1 fold
same,binding result,N376D,binds
same,binding result,Q450R,binds
same,binding result,S452G,binds
